Positions of bridges follow the written chain, without caps; N, C: chain ends. No end group written: not given here. fluorescein = Fluorescein label on the N-terminus, attached via Aca
Key:
fibrinogen [1] = molecular target: T1, fibrinogen (Homo sapiens, UniProt P02671); assay: fluorescence polarization
T1 chain 1: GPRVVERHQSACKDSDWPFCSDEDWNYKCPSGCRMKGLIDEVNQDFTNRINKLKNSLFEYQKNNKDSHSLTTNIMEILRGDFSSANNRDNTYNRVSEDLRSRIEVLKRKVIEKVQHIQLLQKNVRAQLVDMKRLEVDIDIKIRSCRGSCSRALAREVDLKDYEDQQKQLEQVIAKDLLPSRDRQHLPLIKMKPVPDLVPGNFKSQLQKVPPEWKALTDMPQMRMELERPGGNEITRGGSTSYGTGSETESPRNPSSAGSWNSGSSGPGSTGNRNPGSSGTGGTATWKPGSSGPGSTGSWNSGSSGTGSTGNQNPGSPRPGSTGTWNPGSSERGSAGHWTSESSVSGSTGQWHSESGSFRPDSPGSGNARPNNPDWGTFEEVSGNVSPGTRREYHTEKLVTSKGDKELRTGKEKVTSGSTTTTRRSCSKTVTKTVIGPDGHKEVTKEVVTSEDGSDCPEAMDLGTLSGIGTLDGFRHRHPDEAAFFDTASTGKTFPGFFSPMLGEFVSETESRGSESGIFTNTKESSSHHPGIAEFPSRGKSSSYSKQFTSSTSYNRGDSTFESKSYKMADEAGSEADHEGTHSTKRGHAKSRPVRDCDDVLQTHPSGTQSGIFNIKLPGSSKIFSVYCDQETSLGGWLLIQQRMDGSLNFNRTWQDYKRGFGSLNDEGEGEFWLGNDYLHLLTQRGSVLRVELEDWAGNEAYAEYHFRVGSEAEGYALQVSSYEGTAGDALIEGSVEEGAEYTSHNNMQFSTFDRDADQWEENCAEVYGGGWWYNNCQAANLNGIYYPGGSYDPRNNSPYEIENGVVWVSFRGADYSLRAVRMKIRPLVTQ
T1 chain 2: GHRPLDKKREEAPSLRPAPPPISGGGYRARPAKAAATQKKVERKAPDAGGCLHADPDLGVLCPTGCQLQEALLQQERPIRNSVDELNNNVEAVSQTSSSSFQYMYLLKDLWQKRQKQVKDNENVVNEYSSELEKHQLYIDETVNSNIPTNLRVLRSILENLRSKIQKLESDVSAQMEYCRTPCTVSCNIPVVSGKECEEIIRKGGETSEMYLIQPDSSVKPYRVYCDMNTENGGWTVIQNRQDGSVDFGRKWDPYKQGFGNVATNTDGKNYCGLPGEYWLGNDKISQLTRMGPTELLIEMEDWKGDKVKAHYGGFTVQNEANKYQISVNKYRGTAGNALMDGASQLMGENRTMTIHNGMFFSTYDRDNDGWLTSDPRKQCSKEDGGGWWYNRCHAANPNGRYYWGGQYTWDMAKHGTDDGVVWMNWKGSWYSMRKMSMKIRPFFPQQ
T1 chain 3: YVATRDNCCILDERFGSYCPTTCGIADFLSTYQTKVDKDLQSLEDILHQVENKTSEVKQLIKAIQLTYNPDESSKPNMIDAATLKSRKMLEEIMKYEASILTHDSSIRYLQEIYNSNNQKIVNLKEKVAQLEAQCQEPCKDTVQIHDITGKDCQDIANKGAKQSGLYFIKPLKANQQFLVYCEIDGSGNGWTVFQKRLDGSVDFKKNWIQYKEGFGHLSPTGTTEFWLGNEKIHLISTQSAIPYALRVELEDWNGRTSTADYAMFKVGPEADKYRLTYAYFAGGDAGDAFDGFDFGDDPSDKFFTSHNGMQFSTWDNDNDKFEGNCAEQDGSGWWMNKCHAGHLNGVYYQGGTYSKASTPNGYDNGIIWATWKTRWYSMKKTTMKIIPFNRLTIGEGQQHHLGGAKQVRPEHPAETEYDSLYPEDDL

DD(E) DD(E) [2] = molecular target: T2, DD(E) DD(E) (Homo sapiens, UniProt P02671); assay: fluorescence polarization
T2 chain 1: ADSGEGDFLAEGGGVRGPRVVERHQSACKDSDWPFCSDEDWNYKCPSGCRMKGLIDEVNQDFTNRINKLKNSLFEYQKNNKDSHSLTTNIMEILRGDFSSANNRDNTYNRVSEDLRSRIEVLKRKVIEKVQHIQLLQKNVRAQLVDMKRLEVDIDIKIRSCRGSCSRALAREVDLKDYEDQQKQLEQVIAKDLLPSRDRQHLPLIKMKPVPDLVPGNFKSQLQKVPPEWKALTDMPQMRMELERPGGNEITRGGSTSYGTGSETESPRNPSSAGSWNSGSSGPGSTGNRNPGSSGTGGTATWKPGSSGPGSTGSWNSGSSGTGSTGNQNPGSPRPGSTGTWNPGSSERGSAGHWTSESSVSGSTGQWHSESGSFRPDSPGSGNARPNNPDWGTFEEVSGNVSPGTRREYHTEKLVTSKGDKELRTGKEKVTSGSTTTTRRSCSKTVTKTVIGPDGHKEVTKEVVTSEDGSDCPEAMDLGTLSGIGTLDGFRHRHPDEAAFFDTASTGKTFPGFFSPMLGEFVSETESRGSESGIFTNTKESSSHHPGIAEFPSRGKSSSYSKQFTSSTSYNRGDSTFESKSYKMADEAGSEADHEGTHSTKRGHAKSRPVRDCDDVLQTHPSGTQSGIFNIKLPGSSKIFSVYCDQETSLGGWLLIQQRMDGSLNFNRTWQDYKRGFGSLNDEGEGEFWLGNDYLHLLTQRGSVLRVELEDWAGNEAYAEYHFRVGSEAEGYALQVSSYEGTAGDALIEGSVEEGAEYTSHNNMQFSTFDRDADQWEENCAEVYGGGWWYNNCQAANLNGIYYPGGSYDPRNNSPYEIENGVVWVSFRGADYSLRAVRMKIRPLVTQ
T2 chain 2: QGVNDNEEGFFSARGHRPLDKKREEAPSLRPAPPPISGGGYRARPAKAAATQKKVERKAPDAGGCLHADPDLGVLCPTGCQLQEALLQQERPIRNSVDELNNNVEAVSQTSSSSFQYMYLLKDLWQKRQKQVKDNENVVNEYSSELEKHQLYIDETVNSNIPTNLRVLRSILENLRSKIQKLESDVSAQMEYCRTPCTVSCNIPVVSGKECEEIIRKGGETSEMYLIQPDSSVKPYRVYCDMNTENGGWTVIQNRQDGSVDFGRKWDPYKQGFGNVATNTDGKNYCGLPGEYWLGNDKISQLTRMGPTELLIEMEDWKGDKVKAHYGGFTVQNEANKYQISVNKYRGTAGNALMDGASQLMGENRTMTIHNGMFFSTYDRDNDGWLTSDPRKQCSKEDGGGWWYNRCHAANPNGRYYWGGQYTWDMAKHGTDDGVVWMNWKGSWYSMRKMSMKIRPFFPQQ
T2 chain 3: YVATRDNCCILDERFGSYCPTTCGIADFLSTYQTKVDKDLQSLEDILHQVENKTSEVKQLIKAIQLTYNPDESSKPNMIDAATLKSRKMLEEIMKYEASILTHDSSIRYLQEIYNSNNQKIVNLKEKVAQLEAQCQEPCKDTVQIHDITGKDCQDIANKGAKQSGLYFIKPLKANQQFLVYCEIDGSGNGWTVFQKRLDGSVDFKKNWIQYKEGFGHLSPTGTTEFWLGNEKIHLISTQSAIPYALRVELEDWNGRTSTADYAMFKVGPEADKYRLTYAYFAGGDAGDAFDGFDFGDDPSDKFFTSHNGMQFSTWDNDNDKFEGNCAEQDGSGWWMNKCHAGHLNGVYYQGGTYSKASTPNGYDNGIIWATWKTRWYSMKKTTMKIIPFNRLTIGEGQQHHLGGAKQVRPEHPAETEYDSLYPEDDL

DD(E) DD(E) [3] = molecular target: T2, DD(E) DD(E); assay: FP displacement
fibrin = molecular target: T3, fibrin (Homo sapiens, UniProt P02671); assay: fibrin plate depletion assay
T3 chain 1: ADSGEGDFLAEGGGVR
T3 chain 2: QGVNDNEEGFFSAR
T3 chain 3: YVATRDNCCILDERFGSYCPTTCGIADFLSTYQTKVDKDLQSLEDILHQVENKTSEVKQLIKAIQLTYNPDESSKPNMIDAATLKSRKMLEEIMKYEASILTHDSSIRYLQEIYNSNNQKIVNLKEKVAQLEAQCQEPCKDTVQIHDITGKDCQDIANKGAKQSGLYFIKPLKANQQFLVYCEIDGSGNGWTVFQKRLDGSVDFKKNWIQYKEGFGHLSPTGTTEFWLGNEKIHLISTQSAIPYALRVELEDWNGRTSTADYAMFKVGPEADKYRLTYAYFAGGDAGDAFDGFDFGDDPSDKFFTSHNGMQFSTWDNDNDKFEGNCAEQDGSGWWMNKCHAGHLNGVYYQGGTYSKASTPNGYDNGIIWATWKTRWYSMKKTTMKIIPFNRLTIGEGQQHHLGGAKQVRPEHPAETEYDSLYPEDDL

fibrinogen [4] = molecular target: T1, fibrinogen; assay: ITC
fibrinogen [5] = molecular target: T1, fibrinogen; assay: FP displacement

B1: Tn6-2b-Fl (peptide)
chain: {fluorescein-Aca}-QWECPYGLCWIQ
modifications: cysteine pairing not given here
B1 showed a Kd (fibrinogen [1]) of 22 µM and a Kd (DD(E) DD(E) [2]) of 57 nM.

B2: Tn7-3a-Gd (peptide)
chain: LPCDYYGTCLD-NH2
modifications: disulfide 3-9; not fully specified (N-terminus); also: Gd(III) chelated by DTPA
In the case of B2, the Ki (DD(E) DD(E) [3]) is reported as 2900 nM.

B3: Tn6-1-Gd (peptide)
chain: GGWFHCPYDLCHIL-NH2
modifications: disulfide 6-11; not fully specified (N-terminus); also: Gd(III) chelated by DTPA
In the case of B3, the Kd (fibrin) is reported as 3.1 µM.

B4: Tn6-2a (peptide)
chain: WECPYGLCWIQ
In the case of B4, the Kd (fibrinogen [4]) is reported as greater than 50 µM and the Kd (fibrin) is reported as 2.9 µM.

B5: Tn7-3 (peptide)
chain: LPCDYYGTCLD
B5 was tested, and the Kd (fibrinogen [4]) was greater than 20 µM.

B6: Tn6-1 (peptide)
chain: WFHCPYDLCHIL
B6 showed a Kd (fibrinogen [5]) greater than 200 µM.

B7: Tn7-3b-Gd (peptide)
chain: GLPCDYYGTCLD-NH2
modifications: disulfide 4-10; not fully specified (N-terminus); also: Gd(III) chelated by DTPA
Work on B7 yielded a Kd (fibrin) of 8.4 µM.

— PMC3310290 (2012)
